According to US20070202544:

Experiments:
[1] = target: HA-tagged C96Y mutant insulin 2 (UniProt P01326)
[2] = target: HA-tagged wild-type insulin 2 (UniProt P01326)

Which results are given for HRD1 (from plasmid HRD1-pCMVSPORT6)?
ubiquitination of insulin-2 (IP with anti-HA, immunoblot with anti-Flag for Flag-ubiquitin) [1]: did increase that of C96Y insulin-2; ubiquitination of insulin-2 (IP with anti-HA, immunoblot with anti-Flag for Flag-ubiquitin) [2]: HRD1 expression did not increase the ubiquitination of wild-type insulin-2
